21 variants from the RNAGym collection of RNA variant scans (doi:10.1073/pnas.2313332121) can be followed below.

First the molecules themselves.
B1: TPR t1 (parent)
chain: GACCAAUCUGCCCUCAGAGCUCGAGAACAUCUUCGGAUGCAGAGGAGGCAGGCUUCGGUGGCGCGAUAGCGCCAACGUCCUCAACCUCCAAUGCAUCCCACCACAUGAUGAUGCCUGAAGAGCCUUGGUUUUUUG

In this data set the parent is B1. Nature of the data set: polymerase ribozyme fitness, log enrichment relative to wild type (log ratio); higher = more active; in vitro selection for triplet polymerase activity. The gist of the method:
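Mutant libraries for each subunit of a heterodimeric triplet polymerase ribozyme were made by PCR and then transcribed. Each library underwent one round of in vitro selection in triplicate: annealing with a biotinylated primer, the partner subunit and triplets, frozen incubation at −7 °C, gel excision of extended constructs, streptavidin-bead capture and RT-PCR. Input and output libraries were Illumina-sequenced, and only genotypes with ≥10 input reads and ≥1 read per output were kept. Fitness is the logarithm, base 2, of genotype enrichment over wild-type enrichment, computed from inverse-variance-weighted replicate averages.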
Take GACCAAUCUGCCCUCAGAGCUCGAGAACUUCUUCGGAUGCAGAGGAGGCAGGCUUUGGUGGCGCGAUAGCGCCAACGUCCUCAGCCUCCAAUGCAUUCCACCACAUGAUGAUGCCUGAAGAGCCUUGGUUUUUUG [A29U C56U A84G C97U]: the “polymerase ribozyme fitness (log ratio)” value is -3.9.
Turning to GACCAAUCUGCCCUCAGAGCUCGAGAACUUCUUCGGAUGCAGAGGAGGCAGGCUUUGGUGGCGCGAUAGCGCCAACGUCCUCAACCUCCAAUGCAUCCCACCACAUGAUGAUGCCUGAAGAGUCUUGGUUUUUUG [A29U C56U C123U], the “polymerase ribozyme fitness (log ratio)” value is -0.0509.
As to GACCAAUCUGCCCUCAGAGCUCGAGAACGUCUUCGGAUGCAGAGGAGGCAGGCUUCGGGUGCGCGAUAGCGCCAACGUCCUCAACCUCCAAUGCAUCCCACCACAUGAUGAUGCCUGAAGAGCCUUGGUGUUUUG [A29G U59G G60U U130G], the “polymerase ribozyme fitness (log ratio)” value is -2.01.
For GACCAAUCUGCCCUCAGAGCUCGAGAACGUCUUCGGAUGCAGAGGAGGCAGGCUUCGGUGGCGCGAUAGCGCCAACGUCCUCAACCUCCAAUGCAUCCCACCACAUGAUGAUGCCUGAAGAGCCUUGGUUCUUUG [A29G U131C], the “polymerase ribozyme fitness (log ratio)” value was -1.02.
For GACCAAUCUGCCCUCAGAGCUCGAGAACUUCUUCGGAUGCAGAGGAGGCGGGCUUCGGUGGCGCGAUAGCGCCAACGUCCCCAACCUCCAAUGCAUCCCACCACAUGAUGAUGUCUGAAGAGCCUUGGUUUUUUG [A29U A50G U81C C114U], the “polymerase ribozyme fitness (log ratio)” value was -1.72.
With GACCAAUCUGCCCUCAGAGCUCGAGAACUUCUUCGGUUGCAGACGAGGCAGGCUUCGGUGGCGCGAUAGCGGCAACGUCCUCAACCUCCAAUGCAUCCCACCACAUGAUGAUGUCUGAAGAGCCUUGGUUUUUUG [A29U A37U G44C C72G C114U], the “polymerase ribozyme fitness (log ratio)” value was -4.21.
Regarding GACCAAUCUGCCCUCAGAGCUCGAGAACUUCUUCGGAUGCAGAGGAGGCAGGCUUCGGUGGCGCGGUAGCGCCAACGUCCUCAACCUCCAAUGCAUCCCACCACAUGAUGAUGCCUGAAGAGCCUUGGUUUUUUG [A29U A66G], the “polymerase ribozyme fitness (log ratio)” value was -3.28.
For GACCAAUCUGCCCUCAGAGCUCGAGAACUUCUUCGGAUGCAGAGGAGGCAGGCUUCGGUGGCGCGAUAGCGCCAACGUCCUCAACCUCCAAUGCAUCCCACCACAUGAUGAUGCCUGUAGAGCCUUGGUUUUUUG [A29U A118U], the “polymerase ribozyme fitness (log ratio)” value is -1.3.
For GACCAAUCUGCCCUCAGAGCUCGAGAACUUCUUUGGAUGCAGAGGUGGCAGGCUUCGGUGGCGCGAUAGCGCCAACGUCCUCAACCGCCAAUGCAUCCCACCACAUGAUGAUGCCUGAAGAGCCUUGGUUUUUUG [A29U C34U A46U U87G], the “polymerase ribozyme fitness (log ratio)” value was -5.9.
As for GACCAAUCUGCCCUCAGAGCUCGAGAACUUCUUCGGAUGAAGAGGAGGCAGGCUUCGGUGGCGCGAUAGCGCCAACGUCCUCAACCUCCAAUGCAUCCCACCACAUGACGAUGCCUGAAGAGCCUUGGUGUUUUG [A29U C40A U109C U130G], the “polymerase ribozyme fitness (log ratio)” value was -6.92.
On to GACCAAUCUGCCCUCAGAGCUCGAGAACGUCUUCGGAUGCAGAGGAGGCAGGCUUCGGUGGCGCGAUAGCGCCAACGUCCUCAACCUCCAAUGCAUCCCACCACAUGAUGAAGCCUGAAGAGCCUUGGUUUUUUG [A29G U112A], for which the “polymerase ribozyme fitness (log ratio)” value came out at 0.263.
For GACCAAUCUGCCCUCAGAGCUCGAGAACUUCUUCGGAUGCGGAGGAGGCAGGGUUCGGUGGCGCGAUAGCGCCAACGUCCUCAACCUCCAAUGCAUCCCACCACAUGAUGAUGCCUGAAGAGCCUUGGUUUUUUG [A29U A41G C53G], the “polymerase ribozyme fitness (log ratio)” value is -2.64.
In the case of GACCAAUCUGCCCUCAGAGCUCGAGAACUUCUUCGGAUGCAGAGGAGGCAGGCUUCGGUGGCGCGAUAGCGCCAACGUCCUCAACCUCCAAUGCAUCCCACCACAUGAUGAUGCCUGAAGAGCCUUGGUUUUUUG [A29U] it was -1.67.
As for GACCAAUCUGCCCUCAGAGCUCGAGAACGUCUUCGGAUGCAGAGGAGGCAGGCUUCGGUGGCGCGAUAGCGCCAACGUCCUCAACCUCCAAUGCAUCCCACCACAUGAUGAUGCCAGAAGAGCCUUGGUUUUUUG [A29G U116A], the “polymerase ribozyme fitness (log ratio)” value was -3.67.
In the case of GACCAAUCUGCCCUCAGAGCUCGAGAACGUCUUCGGAUGCAGAGGAGGCAGGCUUCGGUGGCGCGAUAGCGCCAACGUCCUCAACCUCCAAUGCAUCCCACCACAUGAUGAUGCCUGAAGAGCCUAGGUUUUUUG [A29G U126A] it was -2.42.
For GACCAAUCUGCCCUCAGAGCUCGAGAACGUCUUCGGAUGCAGAGGAGGCAGGCUUCGGUGGCGCGAUAGCGCCAACGUCCUCAACCUCCAAUGCAUCCCACCACAUGACGAUGCCUGAAGAGCCUUGGUUUUUUG [A29G U109C], the “polymerase ribozyme fitness (log ratio)” value amounted to 0.997.
With GACCAAUCUGCCCUCAGAGCUCGAGAACUUCUUCGGAUGCAGAGGAGGCAGGCUUCGGUGGCGCGAUAGGGCCAACGUCCUCAACCUCCAAUGCAUCCCACCACAUGAUGAUGCCUGAAGAGCCGUGGUUUUUUG [A29U C70G U125G], the “polymerase ribozyme fitness (log ratio)” value was -3.65.
As for GACCAAUCUGCCCUCAGAGCUCGAGAACUUCUUCGGAUGCAGAGGAGGCAGGCUUCGGUGGCGCGAUAGCGCAAACGUCCUCAACCUCCAAUGCAUCCCACCACAUGAUGAUGCCUGUAGAGCCUUGGUUUUUUG [A29U C73A A118U], the “polymerase ribozyme fitness (log ratio)” value is -0.992.
On to GACCAAUCUGCCCUCAGAGCUCGAGAACGUCUUCGGAUGCAGAGGAGGCAGGCUUCGGUGGCGCGAUAGCGCCAACGUCCCCAACCUCCAAUGCAUCCCUCCACAUGAUGAUGCCUGAAGAGCCUUGGUUUUUUG [A29G U81C A100U], for which the “polymerase ribozyme fitness (log ratio)” value is -3.08.
In the case of GACCAAUCUGCCCUCAGAGCUCGAGAACGUCUUCGGAUGCAGAGGAGGCAGGCUCCGGUGGCUCGAUAGCGCCAACGUCCUCAACCACCAAUGCAUCCCACCACAUGAUGAUCCCUGAAGAGCCUUGGUUUUUUG [A29G U55C G63U U87A G113C], the “polymerase ribozyme fitness (log ratio)” value was -4.13.
The figure for GACCAAUCUGCCCUCAGAGCUCGAGAACUUCUUCGGAUGCAGAGGAGGCAGGCUUCGGUGGCGCGAUAGCGGCAACGUCCUCAACCUCCAAUGCAUCCCACCAUAUGAUGAUGCCUGAACAGCCUUGGUUUUUUG [A29U C72G C104U G120C] is -0.531.
